Laboratory results taken from PMC10992996, “Human CRB1 and CRB2 form homo- and heteromeric protein complexes in the retina” (Life Science Alliance, 2024).

Molecular target: T1, CRB1-FLAG p.C1174G (human, UniProt P82279 26-1406, p.C1174G)
T1 construct: Crumbs homolog 1, canonical form, human, cDNA NM_202153 as printed, with a patient missense mutation; Made by site-directed mutagenesis of m1; also called CRB1 p.C1174G; CRB1-FLAG MT; source: HEK293T, transfected, in lysate; not shown: Strep-Strep-FLAG, N-terminal, kept
T1 sequence (looked up): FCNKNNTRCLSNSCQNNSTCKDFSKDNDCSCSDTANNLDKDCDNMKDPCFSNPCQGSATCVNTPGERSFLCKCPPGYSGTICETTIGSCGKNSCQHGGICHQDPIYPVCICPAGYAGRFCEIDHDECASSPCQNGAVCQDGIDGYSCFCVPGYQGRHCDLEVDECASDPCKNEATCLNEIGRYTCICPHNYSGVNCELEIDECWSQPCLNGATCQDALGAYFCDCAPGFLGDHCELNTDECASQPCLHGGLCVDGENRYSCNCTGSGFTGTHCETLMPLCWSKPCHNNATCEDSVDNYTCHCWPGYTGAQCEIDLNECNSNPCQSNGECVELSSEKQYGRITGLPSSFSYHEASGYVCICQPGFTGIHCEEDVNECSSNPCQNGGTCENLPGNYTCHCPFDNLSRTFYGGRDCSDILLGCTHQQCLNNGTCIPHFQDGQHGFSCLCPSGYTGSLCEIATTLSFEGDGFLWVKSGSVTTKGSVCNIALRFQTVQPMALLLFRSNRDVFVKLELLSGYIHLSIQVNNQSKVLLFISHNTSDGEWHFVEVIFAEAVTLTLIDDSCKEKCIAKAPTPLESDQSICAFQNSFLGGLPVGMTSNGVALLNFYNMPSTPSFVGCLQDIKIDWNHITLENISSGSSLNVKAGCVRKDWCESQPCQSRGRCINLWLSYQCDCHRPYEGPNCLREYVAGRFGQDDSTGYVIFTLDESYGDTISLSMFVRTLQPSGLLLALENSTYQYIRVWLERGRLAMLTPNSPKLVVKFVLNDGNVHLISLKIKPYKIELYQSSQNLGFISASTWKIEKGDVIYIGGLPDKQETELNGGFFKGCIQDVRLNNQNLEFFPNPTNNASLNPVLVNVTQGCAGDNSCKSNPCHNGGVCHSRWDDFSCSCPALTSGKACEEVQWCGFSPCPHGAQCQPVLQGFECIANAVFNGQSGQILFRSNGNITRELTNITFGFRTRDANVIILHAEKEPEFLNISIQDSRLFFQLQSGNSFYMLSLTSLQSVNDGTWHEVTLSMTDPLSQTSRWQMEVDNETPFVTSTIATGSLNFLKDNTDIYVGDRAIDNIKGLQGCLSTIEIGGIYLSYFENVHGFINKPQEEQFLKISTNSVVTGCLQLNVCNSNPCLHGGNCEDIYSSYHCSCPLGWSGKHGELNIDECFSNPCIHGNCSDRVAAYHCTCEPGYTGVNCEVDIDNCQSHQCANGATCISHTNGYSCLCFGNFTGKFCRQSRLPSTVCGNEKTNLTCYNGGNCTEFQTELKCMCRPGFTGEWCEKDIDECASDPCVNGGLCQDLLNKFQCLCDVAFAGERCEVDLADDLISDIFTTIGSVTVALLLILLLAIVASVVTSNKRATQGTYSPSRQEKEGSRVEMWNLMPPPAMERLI
Assay: co-IP; HEK293T cells co-transfected pairwise with a FLAG and an HA construct, 48 h; lysis in TBS (30 mM Tris-HCl pH 7.4, 150 mM NaCl) with 0.5% Nonidet P40; FLAG-IP on ANTI-FLAG M2 Affinity Gel 60-90 min at 4°C, elution with FLAG peptide; Western blot with HA and FLAG antibodies; for mutants HA/FLAG signal in eluates relative to WT, three biological replicates
Conditions: partners not purified

- percent reduction of the interaction relative to CRB1 WT: 17%
B1: Human canonical CRB2 (Crumbs homolog 2) (natural protein)
chain: not shown
notes: Crumbs homolog 2, human, cDNA NM_173689; Stood as bait (FLAG copy) and as prey (HA copy) in the pairwise co-IP matrix; each copy carries only one of the two tags; The FLAG copy was the bait of the mass spectrometry pull-downs; also called CRB2-FLAG; CRB2-HA; source: HEK293T, transfected, in lysate (co-IP); HEK293T, transfected, FLAG-IP on beads, washed and purified with 0.01% SDS (retina …)
